The target of the assay is Human angiotensin-converting enzyme 2 ectodomain (amino acids 20-613) with C-terminal E5 coil tag, p (human) (UniProt Q9BYF1). Description: SPR. (SPR reads the build-up and loss of mass on a sensor chip optically.)
Chain of Human angiotensin-converting enzyme 2 ectodomain (amino acids 20-613) with C-terminal E5 coil tag, p (human) (Q9BYF1 20-613): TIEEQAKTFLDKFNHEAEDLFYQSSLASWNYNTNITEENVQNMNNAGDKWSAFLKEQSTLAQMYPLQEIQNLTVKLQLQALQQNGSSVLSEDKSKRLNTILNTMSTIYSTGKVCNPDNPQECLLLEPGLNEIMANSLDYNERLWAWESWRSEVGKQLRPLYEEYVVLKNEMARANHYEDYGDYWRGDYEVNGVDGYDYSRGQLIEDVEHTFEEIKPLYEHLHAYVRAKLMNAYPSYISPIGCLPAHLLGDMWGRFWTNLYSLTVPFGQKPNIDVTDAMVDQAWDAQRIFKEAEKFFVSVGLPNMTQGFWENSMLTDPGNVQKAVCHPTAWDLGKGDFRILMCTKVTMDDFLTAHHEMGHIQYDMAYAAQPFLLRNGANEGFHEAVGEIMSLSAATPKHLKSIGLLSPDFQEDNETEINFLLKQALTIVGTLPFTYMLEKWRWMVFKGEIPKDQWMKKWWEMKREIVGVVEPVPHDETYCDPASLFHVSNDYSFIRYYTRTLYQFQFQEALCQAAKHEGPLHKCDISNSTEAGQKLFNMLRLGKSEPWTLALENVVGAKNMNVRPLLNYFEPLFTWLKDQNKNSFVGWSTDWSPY

“SARS-CoV-2 spike protein receptor binding domain (RBD 319-541), Omicron B.1.1.529 (from UniProt P0DTC2 319-541) (domain or fragment)”: the dH was -17 kcal/mol.

For “SARS-CoV-2 spike protein receptor binding domain (RBD 319-541), Delta B.1.617.2 (from UniProt P0DTC2 319-541) (domain or fragment)”, the dH is -10.9 kcal/mol.

Take “SARS-CoV-2 spike protein receptor binding domain (RBD 319-541), Kappa B.1.617.1 (from UniProt P0DTC2 319-541) (domain or fragment)”: the dH is -9.56 kcal/mol.

Turning to “SARS-CoV-2 spike protein receptor binding domain (RBD 319-541), Beta B.1.351 (from UniProt P0DTC2 319-541) (domain or fragment)”, the dH was -15.3 kcal/mol.

As to “SARS-CoV-2 spike protein receptor binding domain (RBD 319-541), Alpha B.1.1.7 (from UniProt P0DTC2 319-541) (domain or fragment)”, the dH was -17.4 kcal/mol.

The values are drawn from publication PMC9261887.
